Assay results as given in article PMC11039692, “SRY-Box transcription factor 9 triggers YAP nuclear entry via direct interaction in tumors” (Signal Transduction and Targeted Therapy, 2024).

B1: SOX9-HMG domain (aa 98–181) (domain or fragment)
chain: not shown
notes: SOX9 HMG domain, residues 98-181; The limits 98-181 are printed for the MST with YAP protein; source: Escherichia coli, purified

Key:
[1] = target: T1, His-tagged YAP purified from Escherichia coli (human, UniProt P46937 1-504); assay: MST; SOX9-HMG (aa 98–181) with YAP protein; which of the two was labelled is not told; 50 mM Tris-HCl pH 7.4, 150 mM NaCl, 0.05% Tween-20; room temperature; conditions: both partners purified
T1 construct: YAP, recombinant; Labelled with RED-tris-NTA 2nd Generation dye where it was the labelled partner; also called YAP protein; source: Escherichia coli, purified

[2] = target: T1, His-tagged YAP purified from …; assay: MST; His-tagged YAP labelled with 25 nM RED-tris-NTA 2nd Generation dye, SOX9 peptide serially diluted; 50 mM Tris-HCl pH 7.4, 150 mM NaCl, 0.05% Tween-20; room temperature; 40% LED power, medium MST power; conditions: both partners purified

T1 sequence (P46937 whole entry, the tested form may be a part): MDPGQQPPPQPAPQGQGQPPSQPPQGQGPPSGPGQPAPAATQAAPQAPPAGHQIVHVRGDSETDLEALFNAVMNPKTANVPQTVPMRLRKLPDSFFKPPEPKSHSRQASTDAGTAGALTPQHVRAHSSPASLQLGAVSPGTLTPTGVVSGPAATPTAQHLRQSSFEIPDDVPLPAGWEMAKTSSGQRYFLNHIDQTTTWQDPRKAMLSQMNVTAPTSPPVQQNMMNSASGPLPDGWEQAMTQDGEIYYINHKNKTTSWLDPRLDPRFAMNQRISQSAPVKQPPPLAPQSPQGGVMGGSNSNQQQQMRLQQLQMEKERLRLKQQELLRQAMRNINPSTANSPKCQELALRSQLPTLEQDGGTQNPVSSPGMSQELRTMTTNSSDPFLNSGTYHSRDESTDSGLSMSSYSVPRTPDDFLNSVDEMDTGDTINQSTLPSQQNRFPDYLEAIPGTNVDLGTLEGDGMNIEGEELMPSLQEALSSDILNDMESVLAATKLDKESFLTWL

Binder | Kd [1] [nM] | Kd [2] [nM]
B1 | 540 | –
RVNGSSKNKPHVKRPMNAFMVWAQAARRKLADQ (peptide, UniProt P48436 94-126, looked up) [nNLS-containing fragment of SOX9 (aa 94–126)] | – | 1100
AFMVWAQAARRKLADQ (peptide, UniProt P48436 111-126, looked up) [peptide S-A1 (SOX9 amino acids 111–126)] | – | 2200
